Experimental data from patent US20130259873A1.

Assays:
[1] = target: high molecular weight melanoma associated antigen (HMW-MAA), also known as CSPG4 (human) (UniProt Q6UVK1); test: flow cytometry, melanoma cell line 526 (BRAF V600E), PE-conjugated anti-mouse IgG
[2] = target: high molecular weight melanoma associated antigen (HMW-MAA), also known as CSPG4 (human) (UniProt Q6UVK1); test: flow cytometry, melanoma cell line 677 (BRAF V600E), PE-conjugated anti-mouse IgG
[3] = target: high molecular weight melanoma associated antigen (HMW-MAA), also known as CSPG4 (human) (UniProt Q6UVK1); test: flow cytometry, melanoma cell line 836 (BRAF V600E), PE-conjugated anti-mouse IgG
[4] = target: high molecular weight melanoma associated antigen (HMW-MAA), also known as CSPG4 (human) (UniProt Q6UVK1); test: flow cytometry, melanoma cell line M21 (BRAF V600E), PE-conjugated anti-mouse IgG
[5] = target: high molecular weight melanoma associated antigen (HMW-MAA), also known as CSPG4 (human) (UniProt Q6UVK1); test: flow cytometry, melanoma cell line 1287 (BRAF V600E), PE-conjugated anti-mouse IgG
[6] = target: high molecular weight melanoma associated antigen (HMW-MAA), also known as CSPG4 (human) (UniProt Q6UVK1); test: flow cytometry, melanoma cell line 1495 (BRAF V600E), PE-conjugated anti-mouse IgG
[7] = target: high molecular weight melanoma associated antigen (HMW-MAA), also known as CSPG4 (human) (UniProt Q6UVK1); test: flow cytometry, melanoma cell line M233 (BRAF V600E), PE-conjugated anti-mouse IgG
[8] = target: high molecular weight melanoma associated antigen (HMW-MAA), also known as CSPG4 (human) (UniProt Q6UVK1); test: flow cytometry, melanoma cell line Colo38 (BRAF V600E), PE-conjugated anti-mouse IgG
[9] = target: high molecular weight melanoma associated antigen (HMW-MAA), also known as CSPG4 (human) (UniProt Q6UVK1); test: flow cytometry, melanoma cell line Mel624 (BRAF V600E), PE-conjugated anti-mouse IgG
[10] = target: high molecular weight melanoma associated antigen (HMW-MAA), also known as CSPG4 (human) (UniProt Q6UVK1); test: flow cytometry, melanoma cell line WM1158 (BRAF V600E), PE-conjugated anti-mouse IgG
[11] = target: high molecular weight melanoma associated antigen (HMW-MAA), also known as CSPG4 (human) (UniProt Q6UVK1); test: flow cytometry, melanoma cell line MV3 (BRAF wild type), PE-conjugated anti-mouse IgG
[12] = target: high molecular weight melanoma associated antigen (HMW-MAA), also known as CSPG4 (human) (UniProt Q6UVK1); test: flow cytometry, melanoma cell line SK-MEL-5 (BRAF V600E), PE-conjugated anti-mouse IgG
[13] = target: high molecular weight melanoma associated antigen (HMW-MAA), also known as CSPG4 (human) (UniProt Q6UVK1); test: flow cytometry, melanoma cell line UACC-257 (BRAF V600E), PE-conjugated anti-mouse IgG
[14] = target: high molecular weight melanoma associated antigen (HMW-MAA), also known as CSPG4 (human) (UniProt Q6UVK1); test: flow cytometry, melanoma cell line SK-MEL-19 (BRAF V600E), PE-conjugated anti-mouse IgG
[15] = target: high molecular weight melanoma associated antigen (HMW-MAA), also known as CSPG4 (human) (UniProt Q6UVK1); test: flow cytometry, melanoma cell line SK-MEL-28 (BRAF V600E), PE-conjugated anti-mouse IgG
[16] = target: high molecular weight melanoma associated antigen (HMW-MAA), also known as CSPG4 (human) (UniProt Q6UVK1); test: flow cytometry, melanoma cell line SK-MEL-37 (BRAF V600E), PE-conjugated anti-mouse IgG

Chain of high molecular weight melanoma associated antigen (HMW-MAA), also known as CSPG4 (human) (Q6UVK1 30-2322): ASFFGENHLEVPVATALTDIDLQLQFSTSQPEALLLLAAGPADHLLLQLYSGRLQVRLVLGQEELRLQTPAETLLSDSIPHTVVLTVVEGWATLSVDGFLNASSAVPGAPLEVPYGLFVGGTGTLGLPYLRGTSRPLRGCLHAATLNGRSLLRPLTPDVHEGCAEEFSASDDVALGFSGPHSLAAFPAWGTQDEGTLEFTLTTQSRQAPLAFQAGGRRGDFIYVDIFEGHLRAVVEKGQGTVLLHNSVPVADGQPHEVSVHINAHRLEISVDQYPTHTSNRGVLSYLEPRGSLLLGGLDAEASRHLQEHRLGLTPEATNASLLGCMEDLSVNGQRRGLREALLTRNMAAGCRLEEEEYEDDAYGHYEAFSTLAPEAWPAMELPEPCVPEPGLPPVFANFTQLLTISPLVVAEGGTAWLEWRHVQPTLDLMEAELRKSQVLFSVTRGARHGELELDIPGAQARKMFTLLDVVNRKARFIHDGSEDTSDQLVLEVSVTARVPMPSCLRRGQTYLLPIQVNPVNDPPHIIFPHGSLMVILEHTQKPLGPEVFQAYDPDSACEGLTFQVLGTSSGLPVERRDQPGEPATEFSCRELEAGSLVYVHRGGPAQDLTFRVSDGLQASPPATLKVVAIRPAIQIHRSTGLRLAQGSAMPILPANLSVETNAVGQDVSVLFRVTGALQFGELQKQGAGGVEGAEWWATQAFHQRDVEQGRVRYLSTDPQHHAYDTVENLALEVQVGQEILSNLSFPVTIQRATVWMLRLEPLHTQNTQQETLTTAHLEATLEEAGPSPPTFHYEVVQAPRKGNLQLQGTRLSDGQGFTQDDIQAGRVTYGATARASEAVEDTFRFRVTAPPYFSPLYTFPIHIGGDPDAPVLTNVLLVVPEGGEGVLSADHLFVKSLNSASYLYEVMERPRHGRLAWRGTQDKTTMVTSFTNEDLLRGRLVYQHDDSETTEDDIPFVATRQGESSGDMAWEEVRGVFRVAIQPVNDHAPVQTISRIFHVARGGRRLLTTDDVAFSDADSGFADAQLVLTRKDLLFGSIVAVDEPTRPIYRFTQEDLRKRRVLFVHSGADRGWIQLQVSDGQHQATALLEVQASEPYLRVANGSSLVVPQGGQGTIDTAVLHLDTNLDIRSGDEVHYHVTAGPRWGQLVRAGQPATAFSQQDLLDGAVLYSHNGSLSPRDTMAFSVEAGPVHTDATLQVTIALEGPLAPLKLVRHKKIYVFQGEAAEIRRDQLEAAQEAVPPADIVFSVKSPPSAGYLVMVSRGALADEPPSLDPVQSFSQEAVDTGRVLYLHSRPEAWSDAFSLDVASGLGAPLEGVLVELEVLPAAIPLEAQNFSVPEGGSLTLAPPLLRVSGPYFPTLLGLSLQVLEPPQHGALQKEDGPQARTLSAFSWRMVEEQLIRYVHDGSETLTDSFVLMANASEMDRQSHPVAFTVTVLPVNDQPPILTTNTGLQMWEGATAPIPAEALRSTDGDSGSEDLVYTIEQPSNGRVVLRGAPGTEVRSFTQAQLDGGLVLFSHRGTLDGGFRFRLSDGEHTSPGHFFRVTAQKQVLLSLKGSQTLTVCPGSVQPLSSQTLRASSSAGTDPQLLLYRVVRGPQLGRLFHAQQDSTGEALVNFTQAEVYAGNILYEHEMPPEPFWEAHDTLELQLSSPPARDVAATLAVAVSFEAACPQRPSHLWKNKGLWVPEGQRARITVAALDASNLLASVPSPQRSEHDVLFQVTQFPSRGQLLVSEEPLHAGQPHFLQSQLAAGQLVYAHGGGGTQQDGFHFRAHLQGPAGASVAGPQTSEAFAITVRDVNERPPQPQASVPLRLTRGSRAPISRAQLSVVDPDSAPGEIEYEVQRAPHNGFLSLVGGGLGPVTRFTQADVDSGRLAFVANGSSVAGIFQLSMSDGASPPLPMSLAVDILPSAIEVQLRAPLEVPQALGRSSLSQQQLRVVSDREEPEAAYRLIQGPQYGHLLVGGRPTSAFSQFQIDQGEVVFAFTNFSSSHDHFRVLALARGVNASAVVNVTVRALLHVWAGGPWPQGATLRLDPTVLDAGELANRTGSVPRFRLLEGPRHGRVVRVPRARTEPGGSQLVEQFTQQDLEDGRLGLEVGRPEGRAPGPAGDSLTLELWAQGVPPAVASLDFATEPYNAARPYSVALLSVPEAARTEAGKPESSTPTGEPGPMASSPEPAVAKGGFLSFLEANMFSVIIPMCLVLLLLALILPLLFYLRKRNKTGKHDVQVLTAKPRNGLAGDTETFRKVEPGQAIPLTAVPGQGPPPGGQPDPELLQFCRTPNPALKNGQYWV

% of cells that express CSPG4 [1]: 78.4% | MFI [1]: 20.2 | % of cells that express CSPG4 [2]: 93% | MFI [2]: 55.8 | % of cells that express CSPG4 [3]: 99.4% | MFI [3]: 1210 | % of cells that express CSPG4 [4]: 99.9% | MFI [4]: 917 | % of cells that express CSPG4 [5]: 99.9% | MFI [5]: 117 | % of cells that express CSPG4 [6]: 80% | MFI [6]: 437 | % of cells that express CSPG4 [7]: 40.8% | MFI [7]: 274 | % of cells that express CSPG4 [8]: 99.8% | MFI [8]: 493 | % of cells that express CSPG4 [9]: 88.2% | MFI [9]: 130 | % of cells that express CSPG4 [10]: 99.8% | MFI [10]: 586 | % of cells that express CSPG4 [11]: 99.7% | MFI [11]: 581 | % of cells that express CSPG4 [12]: 99.6% | MFI [12]: 275 | % of cells that express CSPG4 [13]: 99.9% | MFI [13]: 890 | % of cells that express CSPG4 [14]: 99.9% | MFI [14]: 607 | % of cells that express CSPG4 [15]: 99.8% | MFI [15]: 572 | % of cells that express CSPG4 [16]: 99.9% | MFI [16]: 280
Substance: HMW-MAA (CSPG4)-specific mouse mAb 225.28 (antibody)
